B1: CBP-Mcm3 (subunit of the MCM complex) (natural protein)
chain: MEGSTGFDGDATTFFAPDAVFGDRVRRFQEFLDTFTSYRDSVRSIQVYNSNNAANYNDDQDDADERDLLGDDDGDDLEKEKKAASSTSLNILPHRIIISLDDLREFDRSFWSGILVEPAYFIPPAEKALTDLADSMDDVPHPNASAVSSRHPWKLSFKGSFGAHALSPRTLTAQHLNKLVSVEGIVTKTSLVRPKLIRSVHYAAKTGRFHYRDYTDATTTLTTRIPTPAIYPTEDTEGNKLTTEYGYSTFIDHQRITVQEMPEMAPAGQLPRSIDVILDDDLVDKTKPGDRVNVVGVFKSLGAGGMNQSNSNTLIGFKTLILGNTVYPLHARSTGVAARQMLTDFDIRNINKLSKKKDIFDILSQSLAPSIYGHDHIKKAILLMLMGGVEKNLENGSHLRGDINILMVGDPSTAKSQLLRFVLNTASLAIATTGRGSSGVGLTAAVTTDRETGERRLEAGAMVLADRGVVCIDEFDKMTDVDRVAIHEVMEQQTVTIAKAGIHTTLNARCSVIAAANPVFGQYDVNRDPHQNIALPDSLLSRFDLLFVVTDDINEIRDRSISEHVLRTHRYLPPGYLEGEPVRERLNLSLAVGEDADINPEEHSNSGAGVENEGEDDEDHVFEKFNPLLQAGAKLAKNKGNYNGTEIPKLVTIPFLRKYVQYAKERVIPQLTQEAINVIVKNYTDLRNDDNTKKSPITARTLETLIRLATAHAKVRLSKTVNKVDAKVAANLLRFALLGEDIGNDIDEEESEYEEALSKRSPQKSPKKRQRVRQPASNSGSPIKSTPRRSTASSVNATPSSARRILRFQDDEQNAGEDDNDIMSPLPADEEAELQRRLQLGLRVSPRRREHLHAPEEGSSGPLTEVGTPRLPNVSSAGQDDEQQQSVISFDNVEPGTISTGRLSLISGIIARLMQTEIFEEESYPVASLFERINEELPEEEKFSAQEYLAGLKIMSDRNNLMVADDKVWRV
B2: Mcm7 (subunit of the MCM complex) (natural protein)
chain: MSAALPSIQLPVDYNNLFNEITDFLVTFKQDTLSSDATRNENEDENLDAENIEQHLLEKGPKYMAMLQKVANRELNSVIIDLDDILQYQNEKFLQGTQADDLVSAIQQNANHFTELFCRAIDNNMPLPTKEIDYKDDVLDVILNQRRLRNERMLSDRTNEIRSENLMDTTMDPPSSMNDALREVVEDETELFPPNLTRRYFLYFKPLSQNCARRYRKKAISSKPLSVRQIKGDFLGQLITVRGIITRVSDVKPAVEVIAYTCDQCGYEVFQEVNSRTFTPLSECTSEECSQNQTKGQLFMSTRASKFSAFQECKIQELSQQVPVGHIPRSLNIHVNGTLVRSLSPGDIVDVTGIFLPAPYTGFKALKAGLLTETYLEAQFVRQHKKKFASFSLTSDVEERVMELITSGDVYNRLAKSIAPEIYGNLDVKKALLLLLVGGVDKRVGDGMKIRGDINVCLMGDPGVAKSQLLKAICKISPRGVYTTGKGSSGVGLTAAVMKDPVTDEMILEGGALVLADNGICCIDEFDKMDESDRTAIHEVMEQQTISISKAGINTTLNARTSILAAANPLYGRYNPRLSPLDNINLPAALLSRFDILFLMLDIPSRDDDEKLAEHVTYVHMHNKQPDLDFTPVEPSKMREYIAYAKTKRPVMSEAVNDYVVQAYIRLRQDSKREMDSKFSFGQATPRTLLGIIRLSQALAKLRLADMVDIDDVEEALRLVRVSKESLYQETNKSKEDESPTTKIFTIIKKMLQETGKNTLSYENIVKTVRLRGFTMLQLSNCIQEYSYLNVWHLINEGNTLKFVDDGTMDTDQEDSLVSTPKLAPQTTASANVSAQDSDIDLQDA
B3: Mcm4 (subunit of the MCM complex) (natural protein)
chain: MSQQSSSPTKEDNNSSSPVVPNPDSVPPQLSSPALFYSSSSSQGDIYGRNNSQNLSQGEGNIRAAIGSSPLNFPSSSQRQNSDVFQSQGRQGRIRSSASASGRSRYHSDLRSDRALPTSSSSLGRNGQNRVHMRRNDIHTSDLSSPRRIVDFDTRSGVNTLDTSSSSAPPSEASEPLRIIWGTNVSIQECTTNFRNFLMSFKYKFRKILDEREEFINNTTDEELYYIKQLNEMRELGTSNLNLDARNLLAYKQTEDLYHQLLNYPQEVISIMDQTIKDCMVSLIVDNNLDYDLDEIETKFYKVRPYNVGSCKGMRELNPNDIDKLINLKGLVLRSTPVIPDMKVAFFKCNVCDHTMAVEIDRGVIQEPARCERIDCNEPNSMSLIHNRCSFADKQVIKLQETPDFVPDGQTPHSISLCVYDELVDSCRAGDRIEVTGTFRSIPIRANSRQRVLKSLYKTYVDVVHVKKVSDKRLDVDTSTIEQELMQNKVDHNEVEEVRQITDQDLAKIREVAAREDLYSLLARSIAPSIYELEDVKKGILLQLFGGTNKTFTKGGRYRGDINILLCGDPSTSKSQILQYVHKITPRGVYTSGKGSSAVGLTAYITRDVDTKQLVLESGALVLSDGGVCCIDEFDKMSDSTRSVLHEVMEQQTISIAKAGIITTLNARSSILASANPIGSRYNPNLPVTENIDLPPPLLSRFDLVYLVLDKVDEKNDRELAKHLTNLYLEDKPEHISQDDVLPVEFLTMYISYAKEHIHPIITEAAKTELVRAYVGMRKMGDDSRSDEKRITATTRQLESMIRLAEAHAKMKLKNVVELEDVQEAVRLIRSAIKDYATDPKTGKIDMNLVQTGKSVIQRKLQEDLSREIMNVLKDQASDSMSFNELIKQINEHSQDRVESSDIQEALSRLQQEDKVIVLGEGVRRSVRLNNRV
B4: Mcm2 (subunit of the MCM complex) (natural protein)
chain: MSDNRRRRREEDDSDSENELPPSSPQQHFRGGMNPVSSPIGSPDMINPEGDDNEVDDVPDIDEVEEQMNEVDLMDDNMYEDYAADHNRDRYDPDQVDDREQQELSLSERRRIDAQLNERDRLLRNVAYIDDEDEEQEGAAQLDEMGLPVQRRRRRRQYEDLENSDDDLLSDMDIDPLREELTLESLSNVKANSYSEWITQPNVSRTIARELKSFLLEYTDETGRSVYGARIRTLGEMNSESLEVNYRHLAESKAILALFLAKCPEEMLKIFDLVAMEATELHYPDYARIHSEIHVRISDFPTIYSLRELRESNLSSLVRVTGVVTRRTGVFPQLKYVKFNCLKCGSILGPFFQDSNEEIRISFCTNCKSKGPFRVNGEKTVYRNYQRVTLQEAPGTVPPGRLPRHREVILLADLVDVSKPGEEVEVTGIYKNNYDGNLNAKNGFPVFATIIEANSIKRREGNTANEGEEGLDVFSWTEEEEREFRKISRDRGIIDKIISSMAPSIYGHRDIKTAVACSLFGGVPKNVNGKHSIRGDINVLLLGDPGTAKSQILKYVEKTAHRAVFATGQGASAVGLTASVRKDPITKEWTLEGGALVLADKGVCLIDEFDKMNDQDRTSIHEAMEQQSISISKAGIVTTLQARCSIIAAANPNGGRYNSTLPLAQNVSLTEPILSRFDILCVVRDLVDEEADERLATFVVDSHVRSHPENDEDREGEELKNNGESAIEQGEDEINEQLNARQRRLQRQRKKEEEISPIPQELLMKYIHYARTKIYPKLHQMDMDKVSRVYADLRRESISTGSFPITVRHLESILRIAESFAKMRLSEFVSSYDLDRAIKVVVDSFVDAQKVSVRRQLRRSFAIYTLGH
B5: Mcm5 (subunit of the MCM complex) (natural protein)
chain: MSFDRPEIYSAPVLQGESPNDDDNTEIIKSFKNFILEFRLDSQFIYRDQLRNNILVKNYSLTVNMEHLIGYNEDIYKKLSDEPSDIIPLFETAITQVAKRISILSRAQSANNNDKDPENTSMDTDSLLLNSLPTFQLILNSNANQIPLRDLDSEHVSKIVRLSGIIISTSVLSSRATYLSIMCRNCRHTTSITINNFNSITGNTVSLPRSCLSTIESESSMANESNIGDESTKKNCGPDPYIIIHESSKFIDQQFLKLQEIPELVPVGEMPRNLTMTCDRYLTNKVIPGTRVTIVGIYSIYNSKNGAGSGRSGGGNGGSGVAIRTPYIKILGIQSDVETSSIWNSVTMFTEEEEEEFLQLSRNPKLYEILTNSIAPSIFGNEDIKKAIVCLLMGGSKKILPDGMRLRGDINVLLLGDPGTAKSQLLKFVEKVSPIAVYTSGKGSSAAGLTASVQRDPMTREFYLEGGAMVLADGGVVCIDEFDKMRDEDRVAIHEAMEQQTISIAKAGITTVLNSRTSVLAAANPIYGRYDDLKSPGDNIDFQTTILSRFDMIFIVKDDHNEERDISIANHVINIHTGNANAMQNQQEENGSEISIEKMKRYITYCRLKCAPRLSPQAAEKLSSNFVTIRKQLLINELESTERSSIPITIRQLEAIIRITESLAKLELSPIAQERHVDEAIRLFQASTMDAASQDPIGGLNQASGTSLSEIRRFEQELKRRLPIGWSTSYQTLRREFVDTHRFSQLALDKALYALEKHETIQLRHQGQNIYRSGV

Legend:
Assay in all cases: SEC
[1] = biological target: Mcm6 (subunit of the MCM complex) (S. cerevisiae, UniProt P53091 1-1017)
Chain of Mcm6 (subunit of the MCM complex) (P53091 whole entry, one chain of several): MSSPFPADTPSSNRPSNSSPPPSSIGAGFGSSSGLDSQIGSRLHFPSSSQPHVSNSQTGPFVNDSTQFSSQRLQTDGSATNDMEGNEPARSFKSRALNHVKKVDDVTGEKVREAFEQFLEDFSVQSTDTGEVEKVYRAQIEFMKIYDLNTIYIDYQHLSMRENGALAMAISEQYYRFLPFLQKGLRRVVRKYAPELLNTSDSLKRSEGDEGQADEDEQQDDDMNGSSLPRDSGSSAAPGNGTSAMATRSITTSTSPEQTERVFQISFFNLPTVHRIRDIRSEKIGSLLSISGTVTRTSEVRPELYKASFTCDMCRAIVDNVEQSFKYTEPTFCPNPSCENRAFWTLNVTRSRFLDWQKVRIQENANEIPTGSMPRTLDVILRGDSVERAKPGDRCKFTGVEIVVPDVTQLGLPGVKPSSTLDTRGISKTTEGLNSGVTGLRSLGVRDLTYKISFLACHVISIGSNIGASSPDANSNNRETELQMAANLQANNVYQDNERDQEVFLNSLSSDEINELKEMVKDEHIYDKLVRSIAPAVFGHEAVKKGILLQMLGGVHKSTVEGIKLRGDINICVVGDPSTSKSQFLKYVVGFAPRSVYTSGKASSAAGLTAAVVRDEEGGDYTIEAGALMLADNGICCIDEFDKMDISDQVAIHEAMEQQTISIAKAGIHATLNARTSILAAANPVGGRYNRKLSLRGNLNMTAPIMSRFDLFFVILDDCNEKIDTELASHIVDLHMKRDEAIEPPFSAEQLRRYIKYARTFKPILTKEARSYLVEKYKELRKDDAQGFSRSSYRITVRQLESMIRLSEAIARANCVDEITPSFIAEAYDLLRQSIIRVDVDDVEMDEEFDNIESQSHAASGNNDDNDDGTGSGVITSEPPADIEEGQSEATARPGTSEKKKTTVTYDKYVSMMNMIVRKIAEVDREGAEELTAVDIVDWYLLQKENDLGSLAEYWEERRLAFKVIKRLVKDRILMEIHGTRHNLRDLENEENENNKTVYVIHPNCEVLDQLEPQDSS

[2] = biological target: B1
[3] = biological target: B2

Row | binding result [2] | Binder | further results
1 |  | B1 | binding result [1]: binds
2 | binds | B2 | 
3 | binds | B3 | 
4 | binds | B4 | 
5 |  | B5 | binding result [3]: binds

Reference: paper PMC4157578 (Molecular Cell, 2014)
